Results from the supplement of paper PMC9170038.

Tested on: MS2 coat protein
Test: apparent KD of MS2 coat protein; designed switch direction (-1 OFF switch, 1 ON switch): -1; higher = weaker reporter binding
Procedure, shortened: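 Apparent KD, taken as the median over clusters for each design, was obtained by curve-fitting normalised cluster fluorescence. Designed RNA switches had been transcribed on Illumina chips by stalled E. coli RNA polymerase and titrated with SNAP-549-labelled MS2 coat protein, doubling from 0.7 or 1.5 nM to 3 µM.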

[1] = Eterna round: R95, input ligand: FMN 200 uM
[2] = Eterna round: R95, input ligand: microRNA oligo, concentration not stated
[3] = Eterna round: R95, input ligand: none
[4] = input ligand: microRNA oligo, concentration not stated

Sequence	apparent KD of MS2 coat protein [1] [µM]	apparent KD of MS2 coat protein [2] [µM]	apparent KD of MS2 coat protein [3] [µM]	apparent KD of MS2 coat protein (input ligand: FMN 200 uM) [µM]	apparent KD of MS2 coat protein (input ligand: none) [µM]	apparent KD of MS2 coat protein [4] [µM]
AGUACAAACACGAAAGUGUUUGUACAAUAAGCUUGUGGAACAUGAGGAUCACCCAUGUCCUCAUAAGCUCGUCUUAU [Mat - Sensor v3 - Turn-off var 2 - D29] (puzzle: Sensor v3, turn-off variant 2)	0.0157	0.0871	0.0145			
UCCGGACAUGAGGAUCACCCAUGUGAGGAUAUUGUCGACACGACUGAAAGGAUCACGGCGAGAAGGCGCUUGGA [Eternabot (L2) Solution 48] (Eterna round: R97, puzzle: Exclusion 1)				0.0257	0.0216	
GGAUCGAAUGUGAGGAUAUACCUAUGGAAACAUAGGUAGAAGGCACAUGAGGAUCACCCAUGUCCAAACGGUCC [Mat - Exclusion 4 - Eli Mod - D13] (Eterna round: R97, puzzle: Brourd's mod of Exclusion 4)				1.05	0.225	
UAAUAAAGUGUGAGGAUAUGCUGGUCGAUAGAUCAGCAGAAGGCACAUGAGGAUCACCCAUGUAAUAUAUUUUA [Mat - Exclusion 4 - JL Mod - D46] (puzzle: Brourd's mod of Exclusion 4)		0.0543				
UAAGAGUGAGGAUAUACGUCGCUGGUCCGGAUGGACGCAUGACAUGAGGAUCACCCAUGUAGAAGGCACAAAAC [Enxela] (puzzle: Exclusion 2)		0.0268				
GCUUGUAGAGGAUAUACGAGGGCCCGAGCGGCGAGAGCCGCACAUGAGGAUCACCCAUGUAGAAGGCUACUAUU [JL-ex2-4.19 ViennaUCT mod] (Eterna round: R97, puzzle: Exclusion 2)				0.358	0.133	
CACCUCGUAGCAGGAUAUUAGAGCUUCCGCAAAUGAGAAGGGCUACGAAACACUUGAGGAUCACCCAAGUACCGUGGUCCUCUA [Mutated MS2 EX1.11] (Eterna round: R96, puzzle: Exclusion NG 1)				0.0197	0.0223	0.014
AAAAUACAUGAGGAUCACCCAUGUUAGGAUAUGCAAAGCCCAGUUAGCUUUUGGGUAGGUAGAAGGGACGGGUA [Reenen] (puzzle: Exclusion 1)		0.0215				
CAUGAUCUUCGGAUCAUGUACAUGAGGAUCACCCAUGUGACGAGUUUAUGGGUGAACAAGCUUUUUGCUCGUCUUAU [Sensor v3 - Turn-off variant 1 - 6] (puzzle: Sensor v3, turn-off variant 1)	0.06	0.0112	0.0689			
UUAUAUAGUGUGAGGAUAUGCUGGUCCUUGGAUCAGCAGAAGGCACAUGAGGAUCACCCAUGUAGUUAAUAAUA [Mat - Exclusion 4 - JL Mod - D16] (puzzle: Brourd's mod of Exclusion 4)	0.131	0.03	0.0428			
UUUGACUAAGGAUAUCCUUUUGACCACAUGAGGAUCACCCAUGUAUUCCACAAGUGCGAAGGAGAAGGUGGGAAGG [Eternabot (L2) Solution 28] (Eterna round: R97, puzzle: Exclusion 5)				0.0656	0.0561	
AGUAACAGAGGAUAUACUAUUUUAUGUGUUUGUUGUUUUGAACAUGAGGAUCACCCAUGUAGAAGGCUGAAUAA [JMF 96] (puzzle: Exclusion 2)		0.0241				
CGAGCUGCUGUGAGGAUAUACCUAUGGAUACGUGGGUAGAAGGCACAUGAGGAUCACCCAUGUCCUGCAGCUCG [salish99_bmx4_r4_102] (Eterna round: R97, puzzle: Brourd's mod of Exclusion 4)				0.313	0.0517	
AAAUAACAAGCAGGAUCCUACAUGAGGAUCACCCAUGUGCUCGUCUUAUAAAGUACUAUCACGAAAGUGAUAGUACA [Sensor 3, v1 - 14] (puzzle: Sensor v3, turn-off variant 1)	0.434	0.0846	0.363			
AGUACUAUGCGAGCUGACUUGCGUAGUGCAGCAGGUGUAACAUGAGGAUCACCCAUGUCCUCAUUUGCUCGUCUUAA [Mat - Sensor v3 - Turn-off var 2 - D9] (puzzle: Sensor v3, turn-off variant 2)	0.24	0.288	0.235			
AUAAACGCAGGAUAUACAUGAGGAUCACCCAUGUAAAUUUUAAAAUAAAUAAAUAGAUGUAGAAGGGCGAAAUA [Lollin - Gamma 1] (puzzle: Exclusion 3)	0.037	0.0282	0.0335			
AGCUAGUCAGGAUAUUCUAUUAAUUACAUGAGGAUCACCCAUGUGAAUGGGCAAGGGUGUGAAGAAGGGACUAGCG [Omei Ex5 A16] (Eterna round: R97, puzzle: Exclusion 5)				0.305	1.03	
UUGUUGUGUGUAGGAUAUGCAUGUUAUUAUUAUGCAGAAGGACAUGAGGAUCACCCAUGUGUAUUAUUAUUAUAUAUUAUAUAU [Title] (Eterna round: R96, puzzle: Exclusion NG 1)				0.0211	0.0225	0.0138
ACGACGUAAGGAUAUACAUGAGGAUCACCCAUGUGGAGAUCCAGAGGAGAGACCUGACGUAGAAGGUGCGUCGA [Eternabot (L2) Solution 87] (Eterna round: R97, puzzle: Exclusion 3)				0.286	1.4	
AAUAACAGAGGAUAUACUAUUUUAUGUGUUUGUUGUUUUGAACAUGAGGAUCACCCAUGUAGAAGGCUGAUUAA [JMF 52] (puzzle: Exclusion 2)		0.0343				
ACAUGAGGAUCACCCAUGUGAACGAAAAGGCUCAUGUAGAGUGAGGAUAUGUGAGACGAACGAGAACAGAAGGCACAAGACAGG [Deportation 1 - Jieux - Exclusion NG 3] (Eterna round: R96, puzzle: Exclusion NG 3)				0.0207	0.0354	0.0195
GCUGGGUCAGGAUAUACAGGGUCGAAAGAUCUGUGAUACCUACAUGAGGAUCACCCAUGUAGAAGGGACUGGGC [ChP 11-04-2015 #10] (Eterna round: R96, puzzle: Exclusion 2)				0.0439	0.0189	0.014
AGAUGCUCAAGUCGACAUGAGGAUCACCCAUGUACAGUAAACGAGGAUAUCCGAGAUAAAUAAUAGGAGAAGGCGUGAUCAUGA [Mat - Exclusion NG 3 - Mod of JL - D55] (Eterna round: R96, puzzle: Exclusion NG 3)				0.337	0.0863	0.066
GAGCAGCCGAUAGGAUAUUCCGAGCUAAAGAGCAGUAGGACAUGAGGAUCACCCAUGUGUGCAUGGAAGAAGGGUCACUUCCAG [Eternabot solution 23] (Eterna round: R96, puzzle: Exclusion NG 2)				0.0258	0.0307	0.0242
GUGGGCUUUUAGGUUCUUGACAUGAGGAUCACCCAUGUGCUUGUCUUGCUGGCUGGCGGGUCGUCGGUCGGGCUUGU (Eterna round: R97, puzzle: Sensor, turn-off variant 1)				0.559	0.646	
